Source: US20180312587A1 (ADURO BIOTECH HOLDINGS EUROPE B V, published 2018)

B1: hSIRPα.50A (antibody, V domains shown)
VH: QVQLQQSGPELVKPGASVRISCKASGFTFTNYYIHWVKQRPGQGLEWIGWIYPGNVNTKYNEKFKAKATLTADKSSTTAYMQLSSLASEDSAVYFCARPTIIATDFDVWGAGTTVTVSS
VL: DIVMTQSHKFMSTSVGDRVNITCKASQGVGTAVGWYQQKPGQSPRLLIYWASTRHTGVPDRFTGSGSGTDFSLAISNVQSEDLADYFCQQYSTYPFTFGGGTNLEIK
notes: light chain constant domain not tied; also called mouse hSIRPα.50A; hSIRPα.50A.mIgG1
B2: hSIRPα.40A (antibody, mouse IgG1, kappa, V domains shown)
VH: EVQFQQSGTVLARPGTSVKMSCKASGSTFTSYWMHWVKQGPGQGLQWIGAIYPVNNDTTYNQKFKGKAELTVVTSTSTAYMEVSSLTNEDSAVYYCTRSFYYSLDAAWFVYWGQGTLVTVSA
VL: DIQMTQSPSSLSASLGERVSLTCRASQDIGSRLNWLQQEPDGTIKRLIYATSSLDSGVPKRFSGSRSGSDYSLTISGLESEDFVDYYCLQYASSPFTFGGGTKLEINR
notes: mouse antibody, full chains without signal peptide; also called mouse hSIRPα.40A

Columns and labels:
[1] = target: T1, hSIRPα expressed on primary human cells (human, UniProt P78324 31-504); test: flow cytometry, blockade of DyLight488-hCD47/Fc binding to CD14+ enriched monocytes, donor 1
T1 construct: whole, on cells; also called hSIRPα on primary human CD14+ monocytes; on primary human granulocytes
T1 sequence (P78324 31-504): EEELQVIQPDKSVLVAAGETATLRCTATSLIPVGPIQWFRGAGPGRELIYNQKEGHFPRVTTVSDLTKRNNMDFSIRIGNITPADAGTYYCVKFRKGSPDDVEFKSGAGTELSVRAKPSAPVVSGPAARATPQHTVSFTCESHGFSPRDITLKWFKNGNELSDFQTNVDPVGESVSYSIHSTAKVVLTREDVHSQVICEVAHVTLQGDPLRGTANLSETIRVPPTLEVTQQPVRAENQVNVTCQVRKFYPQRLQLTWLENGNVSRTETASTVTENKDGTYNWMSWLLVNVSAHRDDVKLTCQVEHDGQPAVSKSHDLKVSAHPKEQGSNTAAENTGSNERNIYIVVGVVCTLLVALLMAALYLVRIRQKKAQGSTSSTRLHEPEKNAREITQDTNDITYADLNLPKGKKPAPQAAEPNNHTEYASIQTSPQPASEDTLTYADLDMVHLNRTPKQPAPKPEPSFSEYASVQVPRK
Description: (§1) In addition, the ability of hSIRPα.50A to block the interaction between hSIRPα and recombinant hCD47/Fc-protein was assessed. For this purpose, CD14+ monocytes were isolated from Ficoll-purified human peripheral blood mononuclear cells (PBMCs) using RosetteSep human monocyte enrichment cocktail (Stemcell). The percentage of monocytes present after the enrichment was determined by flow cytometry on the FACSVerse (BD Biosciences) based on CD14 staining using an APC-Cy7-conjugated mouse-anti-human CD14 detection antibody (BD Biosciences). […] After this labeling procedure, cells were washed two times, resuspended in PBS/1% BSA containing 0.1 μg/mL DAPI (BioLegend), and analysed by flow cytometry on the FACSVerse (BD Biosciences). Data were processed and analysed with FlowJo V10 software (FlowJo, LLC).
(§2) To assess the blocking ability of hSIRPα.50A, CD14+ enriched monocytes cells were seeded in 96-well round bottomed tissue culture plates and incubated for 45 minutes with FcR Blocking Reagent (Miltenyi Biotec) and hSIRPα.50A antibody (200 μg/mL and dilutions thereof) in PBS/1% BSA at 4° C. […] After this labeling procedure, cells were washed two times, resuspended in PBS/1% BSA containing 0.1 μg/mL DAPI (BioLegend), and analysed by flow cytometry on the FACSVerse (BD Biosciences). Data were processed and analysed with FlowJo V10 software (FlowJo, LLC).

[2] = target: T2, human SIRPα variant 2 (human, UniProt P78324 31-504); test: flow cytometry, blockade of DyLight488-hCD47/Fc binding to THP-1 cells
T2 construct: full length ORF on transfected CHO-K1 cells; also called hSIRPαV2; SIRPαV2
T2 sequence (P78324 other isoform, or with tags, fused parts or gaps mutant limits assumed): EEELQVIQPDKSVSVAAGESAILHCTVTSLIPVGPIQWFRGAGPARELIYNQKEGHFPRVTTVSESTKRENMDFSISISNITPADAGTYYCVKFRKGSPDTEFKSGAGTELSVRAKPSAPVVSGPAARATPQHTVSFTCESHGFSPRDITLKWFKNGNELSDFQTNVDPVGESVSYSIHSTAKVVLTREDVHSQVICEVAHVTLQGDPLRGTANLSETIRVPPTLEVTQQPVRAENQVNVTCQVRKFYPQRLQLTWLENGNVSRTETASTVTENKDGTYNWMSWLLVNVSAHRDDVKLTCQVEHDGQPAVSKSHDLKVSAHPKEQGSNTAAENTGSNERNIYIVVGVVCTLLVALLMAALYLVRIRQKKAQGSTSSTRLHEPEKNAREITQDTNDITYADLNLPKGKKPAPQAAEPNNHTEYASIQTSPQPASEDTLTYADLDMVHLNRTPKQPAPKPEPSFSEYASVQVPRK
Description: as §2, with “For this purpose, THP-1 (ATCC TIB-202) and U-937 (ATCC CRL-1593.2) monocyte cell lines were used as” for “To assess”, “source” for “blocking ability”, “hSIRPα in the assay. THP-1 and U-937” for “hSIRPα.50A, CD14+ enriched monocytes”, “FACSCanto II” for “FACSVerse”
As depicted in FIG. 4 and the following Table 11, binding of recombinant hCD47 fused to an Fc domain of human IgG1 was monitored in the presence of increasing amounts of the hSIRPα.50A antibody. Antibody hSIRPα.50A blocked the hSIRPα/hCD47 interaction, using the flow cytometry-based method described above. […] IC50 values represent the concentration at which half of the inhibition is observed.

[3] = target: T3, human SIRPα variant 1 (human, UniProt P78324 31-504); test: flow cytometry, CHO-K1.hSIRPαV1 stable cells
T3 construct: full length ORF on transfected CHO-K1 or HEK293 cells; entry includes the signal peptide; also called hSIRPαV1; SIRPαV1
T3 sequence (P78324 31-504 limits assumed, change not shown): as the sequence (P78324 31-504) above
Description: Binding of the parental and humanized antibodies to hSIRPα was assessed by flow cytometry using the CHO-K1.hSIRPαV1 stable cell line. CHO-K1.hSIRPαV1 cells were seeded in 96-well round bottomed tissue culture plates and incubated for 40 minutes with the humanized hSIRPα.40A antibody variants (20 μg/mL and dilutions thereof) in PBS/1% BSA at 4° C. […] After this labeling procedure, cells were washed two times, resuspended in PBS/1% BSA, containing 0.1 μg/mL DAPI (BioLegend), and analysed by flow cytometry on the FACSVerse (BD Biosciences). Data were processed and analysed with FlowJo V10 software (FlowJo, LLC).

[4] = target: T1, hSIRPα expressed on primary human cells; test: flow cytometry on CD14+ enriched monocytes, human donor 2, AF647 goat-anti-mouse IgG
Description: as §1, with “Next, the binding of hSIRPα.40A to hSIRPα expressed on primary human CD14⁺ monocytes was investigated. In” for “In”, “hSIRPα.40A” for “hSIRPα.50A”
as §2, with “hSIRPα.40A,” for “hSIRPα.50A,”, “hSIRPα.40A” for “hSIRPα.50A”, “(20” for “(200”, “Data were processed and analysed with FlowJo V10 software (FlowJo, LLC).” left out

Row | Binder | IC50 [1] | IC50 [2] | EC50 [3] | EC50 (read off the curve) [4]
1 | B1 | 4.62 nM | 4.61 nM |  | 
2 | B2 |  |  | 0.022 nM | ~0.7 nM
